# Data taken from US20240083974A1 (ETH Z RICH, published 2024).
# Ends that are not written are not given here.
# B1: Grb2-targeting peptide (peptide)
# peptide: KKWKMRRNPFWIKIQRCCGIRVVDNSPPPPLPPRRRRSAPSPTRV-NH2
# modifications: cysteine pairing not given here
# notes: The hyphen between the two Cys may mean two peptides joined by a disulfide; also called P6; protein specifically targeting Grb2
# Biological target: T1, artificial transmembrane protein with eYFP (enhanced yellow fluorescent protein) as the receptor structure (Aequorea victoria (Water jellyfish) …, UniProt P42212 2-238 = GFP)
# T1 construct: Control construct in living cells; not shown: Three are signal peptide-SNAPf-PdgfrTM-Li
# Assay: label-free diffraction signal (focal molography) from living cells on a nanopatterned waveguide after injection of the peptide
binder,measurement,value
B1,binding result,no binding
